Test results from patent US20170022277A1 (NATIONAL RESEARCH COUNCIL OF CANADA, published 2017).
Numbering of substitutions follows the chain as printed.

B1: IGF1R-4_H4 (VHH)
VHH: QVQLVESGGGLVQPGGSLRLSCAVSGGTVSPTAMGWFRQAPGKGLEFVGHITWSRGTTRYASSVKGRFTISRDSSKNTVYLQMNSLRAEDTAVYYCAASTFLRILPEESAYTYWGQGTLVTVSS
notes: Humanized variant of IGF1R-4; expressed from pSJF2H in E. coli and purified by IMAC; any vector tag is not described
B2: IGF1R-4_H3 (VHH)
VHH: B1 VHH with S74N
notes: as for B1
B3: IGF1R-4 VHH (VHH)
VHH: QVKLEESGGGLVQAGGSLRLSCEVSGGTVSPTAMGWFRQAPGKEREFVGHITWSRGTTRVASSVKDRFTISRDSAKNTVYLQMNSLKSEDTAVYYCAASTFLRILPEESAYTYWGQGTQVTVSS
notes: Llama VHH, monomeric; Expressed from pSJF2H in TG1 E. coli and purified by IMAC; also called anti-IGF1R VHH IGF1R-4
B4: IGF1R-4_H2 (VHH)
VHH: B1 VHH with F37V, F47W, S74N
notes: as for B1
B5: IGF1R-4_H5 (VHH)
VHH: B1 VHH with G44E, L45R
notes: as for B1

molecular target: T1, recombinant human IGF1R extracellular fragment IGF1R^933-His (human, UniProt P08069 31-933); test: SPR (BIACORE 3000), human IGF1R immobilized on CM5, 1:1 model
T1 construct: It holds the full alpha subunit, the furin site RKRR and most of the extracellular part of the beta subunit; Amine-coupled to a CM5 chip for SPR; also called recombinant extracellular portion of the human IGF1R fragment; not shown: His tag from pCDN4/myc-His vector
T1 sequence (P08069 31-933): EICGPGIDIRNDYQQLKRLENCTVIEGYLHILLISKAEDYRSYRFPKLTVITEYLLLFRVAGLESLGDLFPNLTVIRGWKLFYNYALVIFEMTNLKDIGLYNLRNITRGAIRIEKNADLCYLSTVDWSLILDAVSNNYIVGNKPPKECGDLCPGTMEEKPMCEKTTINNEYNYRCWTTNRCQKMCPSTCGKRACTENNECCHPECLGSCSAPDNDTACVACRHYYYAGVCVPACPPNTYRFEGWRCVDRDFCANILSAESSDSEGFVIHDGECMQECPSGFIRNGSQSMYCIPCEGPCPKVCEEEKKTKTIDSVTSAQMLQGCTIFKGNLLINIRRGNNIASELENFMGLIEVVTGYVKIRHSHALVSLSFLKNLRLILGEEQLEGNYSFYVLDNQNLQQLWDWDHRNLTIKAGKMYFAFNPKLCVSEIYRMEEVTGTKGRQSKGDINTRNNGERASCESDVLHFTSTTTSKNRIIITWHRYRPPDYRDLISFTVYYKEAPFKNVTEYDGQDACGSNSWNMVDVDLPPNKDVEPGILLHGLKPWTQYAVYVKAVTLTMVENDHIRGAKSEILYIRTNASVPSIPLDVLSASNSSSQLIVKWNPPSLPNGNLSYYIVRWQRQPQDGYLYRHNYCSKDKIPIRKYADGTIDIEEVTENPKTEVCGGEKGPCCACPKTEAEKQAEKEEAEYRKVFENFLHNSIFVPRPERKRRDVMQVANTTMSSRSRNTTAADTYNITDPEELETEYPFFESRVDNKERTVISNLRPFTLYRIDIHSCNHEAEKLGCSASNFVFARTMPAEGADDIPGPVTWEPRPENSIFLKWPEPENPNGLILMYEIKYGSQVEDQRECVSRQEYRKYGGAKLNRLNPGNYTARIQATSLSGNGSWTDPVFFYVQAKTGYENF
Method: Approximately 3000 Resonance Units (RU) of recombinant human IGF1R were immobilized on a Sensor chip CM5. Immobilization was carried out at a concentration of 10 μg/ml in 10 mM acetate at pH4.0 using the amine coupling kit supplied by the manufacturer. The remaining binding sites were blocked with 1 M ethanolamine pH 8.5. An ethanolamine blocked surface was used as a reference surface. For the binding studies, analyses were carried out at 25° C. in 10 mM HEPES, pH7.4 containing 150 mM NaCl, 3 mM EDTA and 0.005% surfactant P20 (Polyoxyethylenesorbitan; GE Healthcare). […] Surfaces were regenerated with 10 mM glycine pH 2.0 with a contact time of 24 seconds. Data were analyzed with BIAevaluation 4.1 software (GE Healthcare).

| Kd [nM] | koff [s⁻¹] | Binder |
| --- | --- | --- |
| 0.45 | 0.00039 | B1 |
| 0.39 | 0.00034 | B2 |
| 0.32 | 0.00029 | B3 |
| 1.07 | 0.00061 | B4 |
| 0.52 | 0.00046 | B5 |

molecular target: T2, recombinant human Insulin Receptor (R&D systems) (human, UniProt P06213-2 28-944, limits assumed); test: SPR, IGF1R-4 VHH (0.5 - 50nM) over immobilized recombinant human Insulin Receptor
T2 construct: extracellular domain; Bought protein; About 4000 RU immobilized on a CM5 chip; also called IR; recombinant extracellular portion of the human Insulin Receptor
T2 sequence (P06213 other isoform, or with tags, fused parts or gaps limits assumed): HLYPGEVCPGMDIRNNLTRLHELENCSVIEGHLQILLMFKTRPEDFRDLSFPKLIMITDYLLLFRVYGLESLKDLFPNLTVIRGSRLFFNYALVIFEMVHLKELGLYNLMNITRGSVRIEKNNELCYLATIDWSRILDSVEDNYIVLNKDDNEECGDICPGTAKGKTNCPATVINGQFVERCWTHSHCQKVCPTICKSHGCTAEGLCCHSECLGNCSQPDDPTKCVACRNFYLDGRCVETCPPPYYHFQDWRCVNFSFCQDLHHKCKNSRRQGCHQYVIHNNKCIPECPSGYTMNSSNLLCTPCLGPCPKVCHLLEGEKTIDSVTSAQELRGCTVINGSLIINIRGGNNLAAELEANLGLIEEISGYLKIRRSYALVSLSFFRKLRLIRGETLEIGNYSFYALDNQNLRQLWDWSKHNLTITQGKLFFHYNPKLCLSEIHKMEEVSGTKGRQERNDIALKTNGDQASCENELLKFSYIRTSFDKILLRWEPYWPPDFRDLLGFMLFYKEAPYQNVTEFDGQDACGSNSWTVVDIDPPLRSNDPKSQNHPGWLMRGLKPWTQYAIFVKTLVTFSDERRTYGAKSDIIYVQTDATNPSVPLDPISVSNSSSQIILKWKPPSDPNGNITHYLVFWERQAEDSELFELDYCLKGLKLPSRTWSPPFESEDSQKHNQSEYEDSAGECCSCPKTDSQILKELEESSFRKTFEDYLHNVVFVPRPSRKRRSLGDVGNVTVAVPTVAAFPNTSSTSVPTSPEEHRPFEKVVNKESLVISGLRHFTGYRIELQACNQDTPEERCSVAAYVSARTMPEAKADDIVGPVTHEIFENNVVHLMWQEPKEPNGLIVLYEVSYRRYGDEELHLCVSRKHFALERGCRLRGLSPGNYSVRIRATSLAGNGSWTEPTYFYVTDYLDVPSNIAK

| binding result | Binder |
| --- | --- |
| no binding (tested: 50 nM) | B3 |
